This is an account of results in patent publication US20260242478A1 (published 2026).

Where no end group is shown, it is not given here.

Experiment [1] has as its target T1, PSMA Fab (biotinylated (site not given)).
T1 construct: Biotinylated PSMA Fab captured on neutravidin plates in the phage ELISA; also called Anti-PSMA Fab; 006 PSMA Fab
Put plainly: phage ELISA on captured biotinylated PSMA Fab, wells pre-incubated with PSMA antigen (competitor: PSMA); anti-M13 HRP detection. A general note: ELISA stands for enzyme-linked immunosorbent assay.

Experiment [2] addresses T1, PSMA Fab. Put plainly: phage ELISA: clonal phage supernatant on biotinylated PSMA Fab captured on neutravidin plate, blocking buffer alone; anti-M13 HRP detection.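 Further: crude clonal phage supernatants added to wells preincubated with blocking buffer, incubated briefly, bound phage detected with a horseradish-conjugated anti-M13 antibody.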
Method: (§1) Clonal phage were harvested as crude supernatants and screened via standard ELISAs. […] Prior to the addition of clonal phage. wells were incubated with blocking buffer and PSMA antigen or blocking buffer alone. Without washing or aspirating, clonal phage supernatants were then added to the wells and incubated for a short time. Wells were then washed followed by detection of bound phage using a horse radish conjugated anti-M13 antibody.
Experiment [3] has as its target T2, PSMA Fab (006 PSMA Fab).
T2 construct: In the phage ELISA the PSMA Fab was biotinylated and captured on neutravidin coated plates; also called Anti-PSMA Fab; anti-PSMA Fab
The experiment in a line: clonal phage ELISA on biotinylated PSMA Fab captured on neutravidin plates, anti-M13-HRP detection.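 Further: crude clonal phage supernatants added to wells preincubated with PSMA antigen or with blocking buffer only (no wash between), briefly incubated, then washed before detecting bound phage.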
Method: as §1

Experiment [4] has as its target T2, PSMA Fab (006 PSMA Fab). The experiment in a line: clonal phage ELISA on captured PSMA Fab, wells pre-incubated with PSMA antigen as competitor (column head not shown, assumed).

B1: Phage-2478 (peptide, not shown: large carriers)
peptide: EMIRCIPDWMCMSY
modifications: cysteine pairing not given here; also: displayed on phage as fusion to pIII, pIII and linker sequence not given here
notes: Clonal phage of the Peptide-180 optimisation library, tested as crude supernatant
Regarding B1, the “Phage binding ELISA signal, Anti-PSMA Fab in presence of PSMA” value (“Phage binding ELISA signal … of PSMA” below) with PSMA Fab [1] is 0.0624. Moreover, in the experiment with PSMA Fab [2], the “Phage binding ELISA signal, Anti-PSMA Fab” value came out at 1.23.

B2: Phage-2480 (peptide, not shown: large carriers)
peptide: PFKWCTPAWMCEVH
modifications: cysteine pairing not given here; also: displayed on phage as fusion to pIII, pIII and linker sequence not given here
notes: as for B1
As for B2, the “Phage binding ELISA signal … of PSMA” value in the experiment with PSMA Fab [1] was 0.0594. The “Phage binding ELISA signal, Anti-PSMA Fab” value with PSMA Fab [2] turned out to be 1.23.

B3: Phage-2416 (peptide)
peptide: SERWCIPQWMCTAP
modifications: cysteine pairing not given here; also: displayed on bacteriophage by fusion to pIII
B3: the “Phage binding ELISA signal, Anti-PSMA Fab” value with PSMA Fab (006 PSMA Fab) [3] was 1.34. Besides, the “Phage binding ELISA signal, Anti-PSMA Fab with PSMA antigen” value in the experiment with PSMA Fab (006 PSMA Fab) [4] was determined as 0.0763.

B4: Phage-2415 (peptide)
peptide: LWKWCTPPWMCEVS
modifications: cysteine pairing not given here; also: displayed on bacteriophage by fusion to pIII
For the molecule B4, the “Phage binding ELISA signal, Anti-PSMA Fab” value with PSMA Fab (006 PSMA Fab) [3] was 1.34. Moreover, in the experiment with PSMA Fab (006 PSMA Fab) [4], the “Phage binding ELISA signal, Anti-PSMA Fab with PSMA antigen” value came to 0.0864.

B5: Phage-2468 (peptide, not shown: large carriers)
peptide: FEKWCIPAWMCEQV
modifications: cysteine pairing not given here; also: displayed as fusion to phage pIII
notes: as for B1
B5: the “Phage binding ELISA signal … of PSMA” value with PSMA Fab [1] turned out to be 0.0596. The “Phage binding ELISA signal, Anti-PSMA Fab” value in the experiment with PSMA Fab [2] was determined as 1.24.

B6: Phage-2476 (peptide, not shown: large carriers)
peptide: YHNWCVPQWMCVGL
modifications: cysteine pairing not given here; also: displayed on phage as fusion to pIII, pIII and linker sequence not given here
notes: as for B1
Consider B6, for which the “Phage binding ELISA signal … of PSMA” value in the experiment with PSMA Fab [1] was found to be 0.127. Also, in the experiment with PSMA Fab [2], the “Phage binding ELISA signal, Anti-PSMA Fab” value amounted to 1.23.

B7: Phage-2475 (peptide, not shown: large carriers)
peptide: EHKWCTPLWMCEGL
modifications: cysteine pairing not given here; also: fused to phage pIII (clonal phage display)
notes: as for B1
With B7, in the experiment with PSMA Fab [1], the “Phage binding ELISA signal … of PSMA” value came out at 0.09. Also, the “Phage binding ELISA signal, Anti-PSMA Fab” value with PSMA Fab [2] was 1.23.

B8: Phage-2470 (peptide, not shown: large carriers)
peptide: VDKLCRPAWMCVAS
modifications: cysteine pairing not given here; also: displayed as fusion to phage pIII
notes: as for B1
Take B8: the “Phage binding ELISA signal … of PSMA” value with PSMA Fab [1] was 0.0775. Moreover, the “Phage binding ELISA signal, Anti-PSMA Fab” value with PSMA Fab [2] was 1.24.

B9: Phage-2414 (peptide)
peptide: VEKWCTPPWMCRFD
modifications: cysteine pairing not given here; also: displayed on bacteriophage by fusion to pIII
With B9, the “Phage binding ELISA signal, Anti-PSMA Fab” value with PSMA Fab (006 PSMA Fab) [3] stood at 1.34. For the same molecule, the “Phage binding ELISA signal, Anti-PSMA Fab with PSMA antigen” value in the experiment with PSMA Fab (006 PSMA Fab) [4] was 0.074.

B10: Phage-2471 (peptide, not shown: large carriers)
peptide: MEKWCIPDWMCLGN
modifications: cysteine pairing not given here; also: displayed as fusion to phage pIII
notes: as for B1
As for B10, the “Phage binding ELISA signal … of PSMA” value with PSMA Fab [1] was found to be 0.0809. Besides, the “Phage binding ELISA signal, Anti-PSMA Fab” value with PSMA Fab [2] came to 1.24.
As to VAKWCIPSWMCETV (cysteine pairing not given here; also: displayed as fusion to phage pIII) [Phage-2419], in the experiment with PSMA Fab (006 PSMA Fab) [3], the “Phage binding ELISA signal, Anti-PSMA Fab” value was 1.33. Moreover, the “Phage binding ELISA signal, Anti-PSMA Fab with PSMA antigen” value in the experiment with PSMA Fab (006 PSMA Fab) [4] was 0.0735.
The matching figures for EIKWCIPSWMCNTL (cysteine pairing not given here; also: displayed as fusion to phage pIII) [Phage-2420]: 1.33 and 0.0772.

B11: Phage-2466 (peptide, not shown: large carriers)
peptide: VVKWCTPSWMCTGF
modifications: cysteine pairing not given here; also: displayed as fusion to phage pIII
notes: as for B1
Take B11: the “Phage binding ELISA signal … of PSMA” value with PSMA Fab [1] was determined as 0.0837. The “Phage binding ELISA signal, Anti-PSMA Fab” value with PSMA Fab [2] stood at 1.24.

B12: Phage-2472 (peptide, not shown: large carriers)
peptide: FDKWCIPPWMCVGP
modifications: cysteine pairing not given here; also: displayed on phage as fusion to pIII, pIII and linker sequence not given here
notes: as for B1
Turning to B12, the “Phage binding ELISA signal … of PSMA” value with PSMA Fab [1] was 0.0689. Also, the “Phage binding ELISA signal, Anti-PSMA Fab” value with PSMA Fab [2] turned out to be 1.24.

B13: Phage-2473 (peptide, not shown: large carriers)
peptide: PEHWCIPPWMCVVH
modifications: cysteine pairing not given here; also: displayed on phage as fusion to pIII, pIII and linker sequence not given here
notes: as for B1
As to B13, the “Phage binding ELISA signal … of PSMA” value with PSMA Fab [1] stood at 0.513. Besides, the “Phage binding ELISA signal, Anti-PSMA Fab” value in the experiment with PSMA Fab [2] turned out to be 1.24.

B14: Phage-2479 (peptide, not shown: large carriers)
peptide: GFPMCKPLWMCENL
modifications: cysteine pairing not given here; also: displayed on phage as fusion to pIII, pIII and linker sequence not given here
notes: as for B1
On to B14, for which the “Phage binding ELISA signal … of PSMA” value with PSMA Fab [1] came out at 0.0667. The “Phage binding ELISA signal, Anti-PSMA Fab” value in the experiment with PSMA Fab [2] is 1.23.

B15: Phage-2417 (peptide)
peptide: FDPWCIPLWMCEGM
modifications: cysteine pairing not given here; also: displayed on bacteriophage by fusion to pIII
Regarding B15, in the experiment with PSMA Fab (006 PSMA Fab) [3], the “Phage binding ELISA signal, Anti-PSMA Fab” value was found to be 1.34. For the same molecule, the “Phage binding ELISA signal, Anti-PSMA Fab with PSMA antigen” value with PSMA Fab (006 PSMA Fab) [4] is 0.0667.

B16: Phage-2474 (peptide, not shown: large carriers)
peptide: DFHMCTPRWMCEGM
modifications: cysteine pairing not given here; also: displayed on phage as fusion to pIII, pIII and linker sequence not given here
notes: as for B1
On to B16, for which the “Phage binding ELISA signal … of PSMA” value with PSMA Fab [1] worked out at 0.0622. The “Phage binding ELISA signal, Anti-PSMA Fab” value in the experiment with PSMA Fab [2] came out at 1.24.
As for QAKWCIPQWMCESY [Phage-2411], the “Phage binding ELISA signal, Anti-PSMA Fab” value with PSMA Fab (006 PSMA Fab) [3] turned out to be 1.35. In the experiment with PSMA Fab (006 PSMA Fab) [4], the “Phage binding ELISA signal, Anti-PSMA Fab with PSMA antigen” value was found to be 0.0648.

B17: Phage-2469 (peptide, not shown: large carriers)
peptide: VSKWCTPAWMCSAM
modifications: cysteine pairing not given here; also: displayed as fusion to phage pIII
notes: as for B1
For the molecule B17, in the experiment with PSMA Fab [1], the “Phage binding ELISA signal … of PSMA” value is 0.099. Also, the “Phage binding ELISA signal, Anti-PSMA Fab” value with PSMA Fab [2] was found to be 1.24.

B18: Phage-2413 (peptide)
peptide: LDMRCTPAWMCEGF
modifications: cysteine pairing not given here; also: displayed on bacteriophage by fusion to pIII
For the molecule B18, the “Phage binding ELISA signal, Anti-PSMA Fab” value with PSMA Fab (006 PSMA Fab) [3] is 1.34. The “Phage binding ELISA signal, Anti-PSMA Fab with PSMA antigen” value with PSMA Fab (006 PSMA Fab) [4] is 0.0768.

B19: Phage-2481 (peptide, not shown: large carriers)
peptide: WSNWCIPPWMCAMN
modifications: cysteine pairing not given here; also: displayed on phage as fusion to pIII, pIII and linker sequence not given here
notes: as for B1
Consider B19, for which the “Phage binding ELISA signal … of PSMA” value in the experiment with PSMA Fab [1] turned out to be 0.0771. Also, the “Phage binding ELISA signal, Anti-PSMA Fab” value with PSMA Fab [2] turned out to be 1.23.

B20: Phage-2477 (peptide, not shown: large carriers)
peptide: VEKWCIPQWMCSMD
modifications: cysteine pairing not given here; also: displayed on phage as fusion to pIII, pIII and linker sequence not given here
notes: as for B1
In the case of B20, in the experiment with PSMA Fab [1], the “Phage binding ELISA signal … of PSMA” value was found to be 0.0715. The “Phage binding ELISA signal, Anti-PSMA Fab” value with PSMA Fab [2] was determined as 1.23.

B21: Phage-2412 (peptide)
peptide: GEKWCIPDWMCAAA
modifications: cysteine pairing not given here; also: displayed on bacteriophage by fusion to pIII
With B21, in the experiment with PSMA Fab (006 PSMA Fab) [3], the “Phage binding ELISA signal, Anti-PSMA Fab” value came out at 1.34. Besides, in the experiment with PSMA Fab (006 PSMA Fab) [4], the “Phage binding ELISA signal, Anti-PSMA Fab with PSMA antigen” value was 0.0769.

B22: Phage-2418 (peptide)
peptide: FSKLCIPAWMCSEE
modifications: cysteine pairing not given here; also: displayed on bacteriophage by fusion to pIII
As for B22, in the experiment with PSMA Fab (006 PSMA Fab) [3], the “Phage binding ELISA signal, Anti-PSMA Fab” value came to 1.34. In addition, the “Phage binding ELISA signal, Anti-PSMA Fab with PSMA antigen” value in the experiment with PSMA Fab (006 PSMA Fab) [4] is 0.0956.

B23: Phage-2467 (peptide, not shown: large carriers)
peptide: GDKWCIPDWMCVQS
modifications: cysteine pairing not given here; also: displayed as fusion to phage pIII
notes: as for B1
For B23, the “Phage binding ELISA signal … of PSMA” value in the experiment with PSMA Fab [1] was found to be 0.0692. Besides, the “Phage binding ELISA signal, Anti-PSMA Fab” value in the experiment with PSMA Fab [2] was determined as 1.24.
